Data taken from EP4681731A1 (Bio-Thera Solutions, Ltd., dated 2026).

Legend:
[1] = molecular target: T1, human OX40 on PG-Jurkat-hOX40-NF-kB cells (human, UniProt P43489 29-277); experiment: flow cytometry competition against OX40L-mFc on PG-Jurkat-OX40-NF-kB cells; reference antibody KHK4083
T1 construct: whole, on cells; Jurkat cells overexpressing human OX40 that also carry the pGL6-NFkB-luc reporter plasmid; also called TNFRSF4; ACT35
T1 sequence (looked up): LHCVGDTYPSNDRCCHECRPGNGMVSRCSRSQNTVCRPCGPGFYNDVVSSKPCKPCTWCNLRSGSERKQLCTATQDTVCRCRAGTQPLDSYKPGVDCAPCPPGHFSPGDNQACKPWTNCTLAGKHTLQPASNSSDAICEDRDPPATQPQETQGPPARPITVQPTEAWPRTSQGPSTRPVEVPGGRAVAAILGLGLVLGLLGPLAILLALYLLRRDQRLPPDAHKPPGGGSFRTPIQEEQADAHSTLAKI

[2] = molecular target: T1, human OX40 on PG-Jurkat-hOX40-NF-kB …; experiment: cell-based or functional assay
[3] = molecular target: T1, human OX40 on PG-Jurkat-hOX40-NF-kB …; experiment: flow cytometry competition: antibody titrated against OX40L-mFc (1.5 ug/mL) on PG-Jurkat-OX40-NF-kB cells, anti-mFc APC detection

fold lower IC50 than antibody KHK4083 [1]: 2.8 fold | IC50 of blocking OX40L-mFc-induced NF-kB luciferase reporter signal (RLU) in PG-Jurkat-OX40-NF-kB cells [2]: 95 pM | fold lower IC50 than antibody KHK4083 in the NF-kB luciferase reporter assay [2]: 4.8 fold | IC50 [3]: 850 pM
B1: antibody M-KF (antibody, human IgG1, kappa, V domains shown)
VH: QVQLVESGGGVVQPGESLRLSCAASGFTFSSYGMHWVRQAPGKGLEWVAVIWEDGSNQYYADSVKGRFTISRDNSKNTLYLQMNSLRAEDTAVYYCAKDNQDTSPDVGIDYWGQGTLVTVSS
VL: DIQMTQSPSSLSASVGDRVTITCRASQNISPFLNWYQQKPGKAPKLLIYAAVGLQSGVPSRFSGSGSGTDFTLTISSLQPEDFATYYCQQYTDYPLTFGGGTKVEIKR
notes: Expressed in CHO-BAT-KF cells (alpha-(1,6)-fucosyltransferase knocked out); also called anti-OX40 antibody
